In patent US20230265217A1:

Assays:
Details in all cases: remark: other sources report otherwise
[1] = molecular target: T1, SARS-CoV-2 S protein trimer (Beta B.1.351 SA variant) [SPN-C52Hk] (SARS-CoV-2), P0DTC2; assay: binding kinetics, Carterra SPR
[2] = molecular target: SARS-CoV-2 S protein trimer [SPN-C52H9] (SARS-CoV-2), P0DTC2; assay: binding kinetics, Carterra SPR
[3] = molecular target: T2, SARS-CoV-2 S protein trimer (Kappa B.1.617.1 India variant) [SPN-C52Hr] (SARS-CoV-2), P0DTC2; assay: binding kinetics, Carterra SPR
[4] = molecular target: T3, SARS-CoV-2 S protein trimer (Alpha B.1.1.7 UK variant) [SPN-C52H6] (SARS-CoV-2), P0DTC2; assay: binding kinetics, Carterra SPR
[5] = molecular target: T4, SARS-CoV-2 S protein trimer (Delta B.1.617.2 India variant) [SPN-C52He] (SARS-CoV-2), P0DTC2; assay: binding kinetics, Carterra SPR
[6] = molecular target: S1 RBD L452R E484Q (Acro) (SARS-CoV-2), P0DTC2; assay: Carterra SPR
[7] = molecular target: T1, SARS-CoV-2 S protein trimer (Beta …); assay: Carterra SPR
[8] = molecular target: SARS-CoV-2 S protein trimer (P.1 Gamma Brazil variant) [SPN-C52Hg] (SARS-CoV-2), P0DTC2; assay: Carterra SPR
[9] = molecular target: T2, SARS-CoV-2 S protein trimer (Kappa …); assay: Carterra SPR
[10] = molecular target: SARS-CoV-2 S protein trimer [SPN-C52H7] (SARS-CoV-2), P0DTC2; assay: Carterra SPR
[11] = molecular target: T3, SARS-CoV-2 S protein trimer (Alpha …); assay: Carterra SPR
[12] = molecular target: T4, SARS-CoV-2 S protein trimer (Delta …); assay: Carterra SPR

Binder | Kd [1] [nM] | koff [1] [s⁻¹] | kon [1] [M⁻¹ s⁻¹] | Kd [2] [nM] | koff [2] [s⁻¹] | kon [2] [M⁻¹ s⁻¹] | Kd [3] [nM] | koff [3] [s⁻¹] | kon [3] [M⁻¹ s⁻¹] | Kd [4] [nM] | koff [4] [s⁻¹] | kon [4] [M⁻¹ s⁻¹] | Kd [5] [nM] | koff [5] [s⁻¹] | kon [5] [M⁻¹ s⁻¹] | Kd [6] [nM] | other results
7-26 (VHH) VHH: EVQLVESGGGLVQPGGSLRLSCAASGSTFSINAMGWFRQAPGKEREFVAGITSSGGYTNYADSVKGRFTISADNSKNTAYLQMNSLKPEDTAVYYCAADGVPEYSDYASGPVWGQGTLVTVSS | < 0.00808 | < 1e-05 | 1.24e+06 | < 0.011 | < 1e-05 | 911000 | < 0.00852 | < 1e-05 | 1.17e+06 | < 0.00965 | < 1e-05 | 1.04e+06 | < 0.0104 | < 1e-05 | 958000 | 18 | 
3-31 (VHH) VHH: EVQLVESGGGLVQPGGSLRLSCAASGSTFSINAMGWFRQAPGKEREFVAGITSSGGYTNYADSVKGRFTISADNSKNTAYLQMNSLKPEDTAVYYCAADGVPEYSDYASGPVWGQGTLVTVSS | < 0.0098 | < 1e-05 | 1.02e+06 | < 0.0136 | < 1e-05 | 734000 | < 0.01 | < 1e-05 | 1e+06 | < 0.0108 | < 1e-05 | 925000 | < 0.0107 | < 1e-05 | 938000 | 16.2 | Kd [7]: 0.0117 nM; koff [7]: 1e-05 s⁻¹; kon [7]: 851000 M⁻¹ s⁻¹; Kd [8]: < 0.012 nM; koff [8]: < 1e-05 s⁻¹; kon [8]: 834000 M⁻¹ s⁻¹; Kd [9]: 0.0129 nM; koff [9]: 1e-05 s⁻¹; kon [9]: 777000 M⁻¹ s⁻¹; Kd [10]: < 0.0167 nM; koff [10]: < 1e-05 s⁻¹; kon [10]: 600000 M⁻¹ s⁻¹; Kd [11]: 0.0143 nM; koff [11]: 1e-05 s⁻¹; kon [11]: 699000 M⁻¹ s⁻¹; Kd [12]: 0.0134 nM; koff [12]: 1e-05 s⁻¹; kon [12]: 744000 M⁻¹ s⁻¹
